Data published in paper PMC3644619.

Target: hormone-binding domain (HBD) of ERα
Test: two-hybrid

Chain of PNRC1d (Q12796 186-327): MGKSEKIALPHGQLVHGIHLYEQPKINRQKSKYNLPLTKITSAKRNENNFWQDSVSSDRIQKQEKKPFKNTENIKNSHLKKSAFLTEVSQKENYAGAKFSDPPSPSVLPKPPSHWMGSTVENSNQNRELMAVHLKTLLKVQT
Chain of hormone-binding domain (HBD) of ERα (P03372 whole entry, the tested form may be a part): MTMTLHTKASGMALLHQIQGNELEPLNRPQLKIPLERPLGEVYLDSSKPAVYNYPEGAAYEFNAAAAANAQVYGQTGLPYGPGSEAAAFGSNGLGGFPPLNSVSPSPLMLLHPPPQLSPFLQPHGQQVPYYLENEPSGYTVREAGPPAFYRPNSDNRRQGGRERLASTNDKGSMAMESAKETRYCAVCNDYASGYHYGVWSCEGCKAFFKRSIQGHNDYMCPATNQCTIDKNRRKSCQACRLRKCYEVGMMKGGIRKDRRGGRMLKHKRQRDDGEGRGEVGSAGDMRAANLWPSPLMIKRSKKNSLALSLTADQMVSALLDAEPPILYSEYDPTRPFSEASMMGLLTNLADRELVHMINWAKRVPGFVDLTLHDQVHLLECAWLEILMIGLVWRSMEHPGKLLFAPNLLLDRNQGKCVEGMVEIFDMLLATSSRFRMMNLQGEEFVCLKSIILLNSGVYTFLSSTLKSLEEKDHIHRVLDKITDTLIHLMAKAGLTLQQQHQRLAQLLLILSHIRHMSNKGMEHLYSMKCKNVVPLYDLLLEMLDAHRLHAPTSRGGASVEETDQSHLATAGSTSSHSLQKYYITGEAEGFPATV

Substance: PNRC1d (from UniProt Q12796 186-327) (natural protein)
- fold increase of affinity compared to fl PNRC (two-hybrid β-galactosidase): > 10 fold
